Test [1] deals with T1, Recombinant mutant human IL-21 (human, UniProt Q9HBE4 30-162, limits assumed).
T1 construct: also called IL-21 mutant; mutant human IL-21 protein
As to the kind of experiment: direct ELISA. On the procedure: (§1) Wells were blocked with 200 μL/well of Blocking Buffer (PBS-Tween plus 1% w/v bovine serum albumin (BSA)) for 1 hour, after which the plates were washed twice with Wash Buffer. Antibody dilutions were prepared in 5% fetal bovine serum (FBS)/Iscove's Modified Dulbecco's Media (IMDM) medium and adjusted to 1 μg/ml. […] Following 1 hour incubation at ambient temperature, the wells were aspirated and the plates washed twice as described above. Horseradish peroxidase (HRP) labeled Goat anti Mouse IgG, Fc specific or Goat anti Rat IgG, Fc specific, or Goat anti Human IgG, Fc specific (Jackson ImmunoResearch Laboratories, West Grove, Pa.) at a dilution of 1:5000 with 5% FBS/IMDM medium was then added to each well, 100 μL/well, and the plates incubated at ambient temperature for 1 hour. After removal of unbound HRP conjugated antibody, the plates were washed five times, 100 μL /well of tetra methyl benzidine (TMB) (BioFX Laboratories, Owings Mills, Md.) added to each well and the plates incubated for 3 minutes at ambient temperature. Color development was stopped by the addition of 100 μL /well of 450 nm TMB Stop Reagent (BioFX Laboratories, Owings Mills, Md.) and the absorbance values of the wells read on a Molecular Devices Spectra MAX 340 instrument at 450 nm.
(In general: An ELISA detects its analyte on a solid surface through an enzyme-linked reagent.)

Test [2] deals with T2, Human IL-21 peptide #1 (pyr30-K50) (human, N-terminal pyroGlu).
T2 construct: coated on ELISA plates; also called Peptide 1 N-Term
T2 peptide: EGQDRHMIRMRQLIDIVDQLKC
As to the kind of experiment: direct ELISA. On the procedure: as §1

The target of test [3] is T3, Human IL-21 peptide #2 (N54-C71) (human).
T3 peptide: NDLVPEFLPAPEDVETNC
As to the kind of experiment: direct ELISA. The method, then:
as §1

Test [4] has as its target T4, Human IL-21 peptide #3 (N97-C122) (human).
T4 peptide: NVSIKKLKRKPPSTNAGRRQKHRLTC
Briefly: direct ELISA. On the procedure: as §1

Test [5] has as its target T5, Human IL-21 peptide #4 (C125-S153) (human).
T5 construct: also called Peptide 4 C-Term
Briefly: direct ELISA. The method, then:
as §1

The target in test [6] is T6, Hu IL-21 Peptide A1750 (conjugated to ovalbumin) (human, also: chemically conjugated to ovalbumin).
T6 construct: also called peptide #2 N54-C71 conjugated to ovalbumin
T6 peptide: NDLVPEFLPAPEDVETNC
Briefly: Western blot. On the procedure:
(§2) For Western blots, the non-specific sites on the membranes were blocked with a buffer containing 20 mM Tris, pH 7.4, 0.5 mM EDTA, 0.5% IGEPAL CA-630, 150 mM NaCl, 0.25% gelatin, and 1% casein hydrolysate blocking solution (Western Blocking Reagent, Roche Diagnostics, Inc., Basel Switerzerland) (Blocking Buffer). The membranes were then incubated for 2 hrs at room temperature with purified monoclonal antibody (10 ng/ml or 100 ng/ml) in the Blocking Buffer followed by a 2 hr incubation with peroxidase conjugated donkey anti-human IgG (Jackson Laboratories, Bar Harbor, Me.). The membranes were washed 5 times with the Tris/EDTA/IGEPAL/NaCl/gelatin Blocking buffer which lacked the casein hydrolysate and developed with SUPERSIGNAL™ DuraWest Luminol/Enhancer/Peroxidase Solution (Pierce, Rockford, Ill.) for chemoluminescence detection. The blots were visualized using X-ray film based standard methods.
(In western blotting, separated proteins are transferred to a membrane and probed.)

The target in test [7] is T7, Hu IL-21 Peptide A1751 (conjugated to ovalbumin) (human, conjugated to ovalbumin).
T7 construct: also called peptide #3 N97-C122 conjugated to ovalbumin
T7 peptide: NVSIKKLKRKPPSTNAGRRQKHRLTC
As to the kind of experiment: Western blot. On the procedure: as §2

Test [8] addresses T8, Hu IL-21 Peptide A1752 (conjugated to ovalbumin) (human, conjugated to ovalbumin).
T8 construct: also called peptide #4 C125-S153 conjugated to ovalbumin
Briefly: Western blot. On the procedure:
as §2

The next test addresses Recombinant murine IL-21 (mouse, UniProt Q9ES17 18-146). Briefly: Western blot. On the procedure: as §2
The next test concerns the target T9, Recombinant human IL-2 (human, UniProt P60568 21-153).
T9 construct: also called Hu IL-2
Briefly: Western blot.

A further test concerns the target T10, Recombinant human IL-4 (human, UniProt P05112 25-153).
T10 construct: also called Hu IL-4
T10 sequence (looked up): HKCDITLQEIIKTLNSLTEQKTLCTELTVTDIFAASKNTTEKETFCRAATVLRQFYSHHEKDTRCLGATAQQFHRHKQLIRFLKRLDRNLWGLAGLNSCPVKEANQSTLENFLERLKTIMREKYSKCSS
Briefly: Western blot.

The next test deals with T11, Recombinant human IL-7 (human, UniProt P13232 26-177).
T11 construct: also called Hu IL-7
T11 sequence (looked up): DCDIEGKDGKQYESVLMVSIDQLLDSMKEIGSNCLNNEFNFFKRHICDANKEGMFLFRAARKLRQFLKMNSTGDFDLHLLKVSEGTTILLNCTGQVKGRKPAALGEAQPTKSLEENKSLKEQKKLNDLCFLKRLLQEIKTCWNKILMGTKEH
As to the kind of experiment: Western blot.

For a further test, the target named is T12, Recombinant human IL-9 (human, UniProt P15248 19-144).
T12 construct: also called Hu IL-9
T12 sequence (P15248 19-144 limits assumed): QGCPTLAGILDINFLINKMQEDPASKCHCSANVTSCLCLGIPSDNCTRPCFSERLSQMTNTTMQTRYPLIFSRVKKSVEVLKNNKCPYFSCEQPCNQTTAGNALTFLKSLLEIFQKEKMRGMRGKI
Briefly: Western blot.

The target of the next test is T13, Recombinant human IL-15 (human, UniProt P40933 49-162).
T13 construct: also called Hu IL-15
T13 sequence (P40933 49-162 limits assumed): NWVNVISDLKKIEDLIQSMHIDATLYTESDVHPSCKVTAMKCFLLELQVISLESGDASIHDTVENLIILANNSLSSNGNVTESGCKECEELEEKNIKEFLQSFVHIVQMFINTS
As to the kind of experiment: Western blot.

Test [9] addresses T14, Recombinant human IL-21 (human, UniProt Q9HBE4 30-162). Briefly: cell-based or functional assay.
The target of test [10] is Recombinant cynomolgus IL-21 (cynomolgus monkey, UniProt Q9HBE4 30-162 (human entry), limits assumed). Briefly: cell-based or functional assay.
Recombinant cynomolgus IL-21, sequence (Q9HBE4 other isoform, or with tags, fused parts or gaps limits assumed): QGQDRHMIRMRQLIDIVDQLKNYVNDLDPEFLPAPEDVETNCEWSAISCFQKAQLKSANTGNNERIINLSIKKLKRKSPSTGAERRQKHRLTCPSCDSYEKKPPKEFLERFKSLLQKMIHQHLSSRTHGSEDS
Test [11] concerns the target T14, Recombinant human IL-21. As to the kind of experiment: cell-based or functional assay. This is another data set of the same source.
Test [12] deals with T14, Recombinant human IL-21. Briefly: cell-based or functional assay. The source holds these as a separate data set.

Where “and” joins values, the source holds several entries; their conditions need not be identical. Equal values may be shown once. No end group written: not given here.

T14 sequence (Q9HBE4 30-162 limits assumed): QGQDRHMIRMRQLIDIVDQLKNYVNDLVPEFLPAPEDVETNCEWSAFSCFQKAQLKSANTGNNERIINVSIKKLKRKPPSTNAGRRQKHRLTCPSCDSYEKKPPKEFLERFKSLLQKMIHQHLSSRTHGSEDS
T9 sequence (P60568 21-153 limits assumed): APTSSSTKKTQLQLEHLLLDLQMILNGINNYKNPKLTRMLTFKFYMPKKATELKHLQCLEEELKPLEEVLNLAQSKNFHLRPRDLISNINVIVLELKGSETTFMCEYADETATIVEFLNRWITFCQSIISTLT
T5 sequence (peptide, as listed by the source): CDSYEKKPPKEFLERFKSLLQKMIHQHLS
T1 sequence (Q9HBE4 other isoform, or with tags, fused parts or gaps mutant limits assumed): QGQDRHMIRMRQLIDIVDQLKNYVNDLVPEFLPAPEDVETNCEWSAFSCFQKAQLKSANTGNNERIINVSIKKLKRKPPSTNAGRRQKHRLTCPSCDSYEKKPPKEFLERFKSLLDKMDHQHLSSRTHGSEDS

B1: Human anti-human IL-21 monoclonal antibody 366.328.10 (antibody, V domains shown)
VH: EVQLVESGGGLVKPGGSLRLSCAASGFIFSSYSMNWVRQAPGKGLEWVSSITSGSYYIHYADSVKGRFTISRDNAKNSLYLQMNSLRAEDTAVYYCVRERGWGYYGMDVWGQGTTVTVSS
VL: AIQLTQSPSSLSASVGDRVTITCRASQDIDSALAWYQQKPGKAPKILIHDASSLESGVPSRFSGSGSGTDFTLTISSLQPEDFATYYCQQFNSYPYTFGQGTKLEIK
notes: Hybridoma antibody, ATCC PTA-8789; isotype printed as IgG
Turning to B1, the binding result is recorded as “binds” in [1]; “no binding (tested: 1 ug/ml mAb)” in test [2]; “no binding (tested: 1 ug/ml mAb)” in [3]; “no binding (tested: 1 ug/ml mAb)” in test [4]; “no binding (tested: 1 ug/ml mAb)” in test [5]; “no binding (tested: 10 or 100 ng/ml mAb)” in test [6]. Besides, the binding result in test [7] is given as “no binding (tested: 10 or 100 ng/ml mAb)”; in test [8] it was “no binding (tested: 10 or 100 ng/ml mAb)”; with Recombinant murine IL-21, “no binding (tested: 10 or 100 ng/ml mAb)”; in the test with Recombinant human IL-2, “no binding”; with Recombinant human IL-4, “no binding”; in the test with Recombinant human IL-7, “no binding”. Also, the binding result with Recombinant human IL-9 and in the test with Recombinant human IL-15 was “no binding” in each case. Moreover, in the test with Recombinant human IL-21 [9], the “IC50 (pM), STAT3-phosphorylation assay, Expt #1” value was determined as 210 pM. The “Cyno IL-21 IC50 ([cIL-21] = 100 pM), STAT-Luciferase assay” value in [10] is 15 ng/mL and 100 pM. Moreover, the “IC50 (nM), B cell proliferation assay (anti-CD40 + 3.21 nM IL-21)” value with Recombinant human IL-21 [11] worked out at 0.71 nM. In addition, the “% IgD-low, CD138+ Plasma Cells, antagonist:ligand 0.16:1” value with Recombinant human IL-21 [12] worked out at 52.1%. Also, in the test with Recombinant human IL-21 [12], the “% IgD-low, CD138+ Plasma Cells, antagonist:ligand 0.6:1” value amounted to 41.4%. Further, in the test with Recombinant human IL-21 [12], the “% IgD-low, CD138+ Plasma Cells, antagonist:ligand 2.5:1” value turned out to be 20.2%. In addition, in the test with Recombinant human IL-21 [12], the “% IgD-low, CD138+ Plasma Cells, antagonist:ligand 10:1” value came out at 15.4%.

The values are drawn from patent US20100041873A1 (ZymoGenetics, published 2010).
